Two molecules from article doi:10.1101/2022.12.02.518933 can be followed below.

Numbering of substitutions follows the chain as printed. Names and notes keep the numbering of the source.

This experiment has as its target AF647-labeled cysteine-less BtuCD Q111C reconstituted into nanodiscs (E. coli) (UniProt P06609). Nature of the experiment: FRET or BRET.

B1: AF546-labeled BtuF harboring the E202A mutation (natural protein)
chain: APRVITLSPANTELAFAAGITPVGVSSYSDYPPQAQKIEQVSTWQGMNLERIVALKPDLVIAWRGGNAERQVDQLASLGIKVMWVDATSIEQIANALRQLAPWSPQPDKAEQAAQSLLDQYAQLKAQYADKPKKRVFLQFGINPPFTSGKESIQNQVLEVCGGENIFKDSRVPWPQVSRAQVLARSPQAIVITGGPDQIPKIKQYWGEQLKIPVIPLTSDWFERASPRIILAAQQLCNALSQVD
modifications: Alexa Fluor 546 C5 maleimide on the cysteine appended to the C-terminus
B1 returned a k fast (double exponential, green emission on addition of BtuCD*) of 0.124 s⁻¹ and a k slow (double exponential, green emission on addition of BtuCD*) of 0.016 s⁻¹.

B2: AlexaFluor 546 (AF546)-labeled E. coli BtuF (natural protein)
chain: B1 chain with A180E
modifications: Alexa Fluor 546 C5 maleimide on the cysteine appended to the C-terminus
The molecule B2 gave a k fast (double exponential, with AMPPNP) of 0.108 s⁻¹; a k fast (double exponential; initial single-lobe association) of 0.158 s⁻¹; a k slow (double exponential, with AMPPNP) of 0.009 s⁻¹; a k slow (double exponential; locking) of 0.025 s⁻¹.
